Among the data in patent US20210030870A1 (STIPE THERAPEUTICS, published 2021) are Kd values, retold here.

In this experiment the target is T1, C-terminal STING (immobilized and purified) (Homo sapiens, UniProt Q86WV6 139-379).
T1 construct: only an unstated C-terminal part stood in the assay; also called immobilized C-terminal STING
As to the kind of experiment: SPR (Biacore); C-terminal STING immobilized on the sensor chip. A general note: In SPR one partner is held on a chip, and binding of the other changes the refractive index at the surface.

T1 sequence (Q86WV6 139-379 limits assumed): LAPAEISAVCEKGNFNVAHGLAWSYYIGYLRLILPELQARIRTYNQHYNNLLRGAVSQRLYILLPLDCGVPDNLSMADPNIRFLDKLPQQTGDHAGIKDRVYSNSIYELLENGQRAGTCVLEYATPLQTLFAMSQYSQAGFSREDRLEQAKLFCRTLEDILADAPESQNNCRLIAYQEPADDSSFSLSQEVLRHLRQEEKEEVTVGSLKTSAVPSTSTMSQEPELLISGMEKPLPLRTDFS
Description: For the surface plasmon resonance (SPR) analyses, BlAcore sensor chips (type CMS; Biacore, Uppsala, SE) were activated with a 1:1 mixture of 0.2 M N-ethyl-N′-(3-dimethylaminopropyl) carbodiimide and 0.05 M N-hydroxysuccinimide in water according to the manufacturer. C-terminal STING was immobilized. The SPR signal from immobilized C-terminal STING generated BlAcore resonance units (RU) that were equivalent to 66 fmol/mm2. The flow cells were regenerated with 20 μl of 1.5 M glycine-HCI (pH 3.0). The flow buffer was 10 mM HEPES, 150 mM NaCl, 1.5 mM CaCl2, and 1 mM EGTA (pH 7.4). The binding data was analyzed using the BIAevaluation program. The number of ligands bound per immobilized receptor was estimated by dividing the ratio RU ligand/mass ligand with RU receptor/mass receptor. The Kd for binding was estimated using a BIA evaluation program.

B1: PEP301, PB1 domain fragment peptide of human P62 (peptide)
peptide: FSFCCSPEPEAEAEAAAGPGGRKKRRQRRRPQ
notes: also called Sp62-301; PB1-domain peptide PEP301
Turning to B1, binding was put at a Kd of 746 nM.
